From patent US20150246949A1, “Desmoglein 2 (DSG2) Binding Proteins and Uses Therefor” (UNIVERSITY OF WASHINGTON THROUGH ITS CENTER FOR …, priority 2012, published 2015) come the findings set out here.

Numbering of substitutions follows the chain as printed. Names may count otherwise. “Also recorded” adds a separate entry of the source.

The target of one test is T1, soluble CD46 (UniProt P15529 35-343).
T1 construct: also called sCD46
T1 sequence: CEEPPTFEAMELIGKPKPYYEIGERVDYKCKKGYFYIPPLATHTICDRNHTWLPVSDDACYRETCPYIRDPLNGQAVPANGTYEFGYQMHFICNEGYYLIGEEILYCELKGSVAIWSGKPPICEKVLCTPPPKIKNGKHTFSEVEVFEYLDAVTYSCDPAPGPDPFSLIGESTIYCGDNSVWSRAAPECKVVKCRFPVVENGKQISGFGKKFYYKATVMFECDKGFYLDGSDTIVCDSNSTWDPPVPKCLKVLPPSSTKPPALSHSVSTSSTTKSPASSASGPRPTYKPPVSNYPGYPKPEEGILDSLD
The experiment in a line: Western blot, soluble CD46 as probe, anti-CD46 mAb. A general note: Immunoblotting shows a protein as a band on a membrane.

In test [1] the target is T2, Recombinant human DSG2 protein (Leinco Technologies) (human, UniProt Q14126 50-609).
T2 construct: also called soluble DSG2; soluble recombinant DSG2
T2 sequence: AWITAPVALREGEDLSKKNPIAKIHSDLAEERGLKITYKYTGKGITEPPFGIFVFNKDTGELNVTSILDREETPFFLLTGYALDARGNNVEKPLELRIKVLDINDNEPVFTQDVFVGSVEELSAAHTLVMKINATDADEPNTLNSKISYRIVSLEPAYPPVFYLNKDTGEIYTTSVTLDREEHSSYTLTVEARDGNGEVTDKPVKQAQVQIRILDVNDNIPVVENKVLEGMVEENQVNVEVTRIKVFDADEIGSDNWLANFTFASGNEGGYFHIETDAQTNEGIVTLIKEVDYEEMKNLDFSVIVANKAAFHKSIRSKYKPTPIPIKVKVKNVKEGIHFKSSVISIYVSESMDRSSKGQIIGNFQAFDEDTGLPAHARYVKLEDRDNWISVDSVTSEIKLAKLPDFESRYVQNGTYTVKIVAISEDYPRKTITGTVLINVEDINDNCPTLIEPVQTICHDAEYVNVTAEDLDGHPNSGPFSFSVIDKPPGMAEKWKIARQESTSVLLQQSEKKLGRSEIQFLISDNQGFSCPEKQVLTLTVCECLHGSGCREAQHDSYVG
The experiment in a line: SPR (BIAcore 3000), DSG2 immobilised on the sensor chip, knobs injected at 2.5 to 10 µg/ml, BIAeval. On the technique in general: SPR reads the build-up and loss of mass on a sensor chip optically.

Test [2] addresses T2, Recombinant human DSG2 protein (Leinco …). The experiment in a line: SPR (BIAcore 3000), DSG2 immobilised on CM4 chip, knob injected.
Test [3] has as its system polarized colon cancer T84 cells. The experiment in a line: Transepithelial electrical resistance (TEER) permeability assay. Type of test: cell-based. Particulars: for Effect on TEER: 5 μg dimeric Ad3 fiber knob added 1 hour to apical chamber. How it is done: (§1) FIG. 5. Correlation of reduced DSG2 binding with the ability to open epithelial junctions. A) Transepithelial electrical resistance (TEER) measured on polarized colon cancer T84 cells. Cells were cultured in transwell chambers until the TEER was constant, i.e. tight junctions had formed. A total of 5 μg of dimeric Ad3 fiber knobs in PBS was then added for 1 hour to the apical chamber. TEER was measured at the indicated time points. N=6. For time points 1.5 and 4 hours the difference between JO-1 vs D261N and N186D was significant (p<0.01). The arrows indicate the addition and removal of Ad3 fiber knobs. B) Enhancement of irinotecan therapy. A total of 4×10^6 A549 cells were injected subcutaneously into CB17-SCID/beige mice. Once the tumor reached a volume of ˜100 mm^3 (day 15 after implantation), the mice were injected intravenously with 2 mg/kg JO-1, E299V, N186D, or PBS, followed by an intravenous injection of irinotecan (37.5 mg/kg) one hour later. The treatment was repeated on day 25. N=5. […] The difference between “irinotecan” vs “JO-1+irinotecan” was significant (p<0.01) from day 20 on.
FIG. 9. Analysis of dimeric Ad3 fiber knob mutants with increased affinity to DSG2. A) Competition of Ad3-GFP virus infection on HeLa cells with dimeric affinity-enhanced mutant Y250F and JO-1 (dimeric wt Ad3 fiber knob). The experimental setting is as described for FIG. 3C. left panel: percentage of GFP positive cells. Right panel: mean fluorescence intensity. N=3. The standard deviation was less than 10%. B) Competition of Ad3-GFP virus infection on HeLa cells by Ad3 knob mutants with enhanced DSG2 binding but without dimerization domain. 1.5×10^5 HeLa cells were seeded into 24 well plates. Cells were incubated with the Ad3 knob mutants at the increasing concentrations for one hour at room temperature. 100 pfu/cell of Ad3GFP virus were then added and GFP expression was analyzed 18 hours later. C) TEER on colon cancer T84 cells. The experimental setting was the same as for FIG. 5A. The TEER at 4 hours is shown. N=3.
A total of 5×10^5 T84 cells were seeded in 12 mm transwell inserts (PET membrane, with 0.4 μm pore size (Corning, N.Y.) and cultured for >14 days until transepithelial electrical resistance (TEER) was stable. Culture medium was changed every 2-3 days. The cells were exposed to DSG2 ligands (20 μg/ml) in adhesion medium (DMEM, 1% FBS, 2 mM MgCl2, 20 mM HEPES) for 15 min at room temperature and TEER was measured and calculated as described elsewhere (39).

In a further test the test system is A549 xenograft tumors. The experiment in a line: Enhancement of irinotecan therapy in A549 xenograft tumors. In kind it is in vivo, CB17-SCID/beige mice. The conditions noted are these: 2 mg/kg i.v. one hour before irinotecan 37.5 mg/kg i.v.; days 15 and 25; N=5. How it is done:
as §1
FIG. 10. Combination of affinity-enhanced JO-1 versions with chemotherapy. A) Enhancement of irinotecan (I) therapy. The experimental setting was the same as in FIG. 5B. […] N=5. […] Mammary fat pad tumors were established from primary ovarian cancer ovc316 cells. Treatment was started when tumors reached a volume of 100 mm^3 Mice were injected intravenously with 2 mg/kg JO-1 or with 0.5 mg/kg JO-4, followed by an intravenous injection of PEGylated liposomal doxorubicin (PLD) (1 mg/kg) one hour later. Treatment was repeated weekly. […] A total of 4×10^6 TNBC MDA-MB-231 cells were injected into the mammary fat pad of CB17 SCID-beige mice. JO-4 (2 mg/kg) was intravenously injected 1 hour before the application of cetuximab (C) (10 mg/kg, i.p.) and nab-paclitaxel (nab-P) (5 mg/kg, i.v). Treatment was given weekly. N=10 P<0.01 at day 25 for nab-P+C vs JO-4+nab-P+C.
A549, MDA-MB-231, and ovc316 xenograft tumors were established by injection of the corresponding tumor cells into the mammary fat pad (1:1 with Matrigel) of CB17 mice. TC1-DSG2 tumors were established by subcutaneous injection of TC1-DSG2 cells into DSG2 transgenic mice. JO-0, JO-1, JO-2, or JO-4 were intravenously injected one hour before the application of chemotherapeutic drugs: Irinotecan/Camptosar™ (Pfizer Inc., Groton, Conn.), PEGylated liposomal doxorubicin/Lipodox™ (Sun Pharmaceuticals IN, India), cetuximab/Erbitux™ (ImClone, Somerville, N.J.), nanoparticle albumin conjugated paclitaxel/Abraxane™ (Abraxis Biosciences, Summit N.J.). Tumor volumes were measured three times a week. Each treatment group consisted of a minimum of 5 mice.

B1: Ad3-S5/Kn (ligand)
chain: GSLQLKVGSGLTVDTTDGSLEENIKVNTPLTKSNHSINLPIGNGLQIEQNKLCSKLGNGLTFDSSNSIALKNNTLWTGPKPEANCIIEYGKQNPDSKLTLILVKNGGIVNGYVTLMGASDYVNTLFKNKNVSINVELYFDATGHILPDSSSLKTDLELKYKQTADFSARGFMPSTTAYPFVLPNAGTHNENYIFGQCYYKASDGALFPLEVTVMLNKRLPDSRTSYVMTFLWSLNAGLAPETTQATLITSPFTFSYIREDD
notes: also called wild-type Ad3 fibers
Regarding B1, the binding result with soluble CD46 is on record as “no binding”.

B2: Ad3-S3/Kn (ligand)
chain: HSINLPIGNGLQIEQNKLCSKLGNGLTFDSSNSIALKNNTLWTGPKPEANCIIEYGKQNPDSKLTLILVKNGGIVNGYVTLMGASDYVNTLFKNKNVSINVELYFDATGHILPDSSSLKTDLELKYKQTADFSARGFMPSTTAYPFVLPNAGTHNENYIFGQCYYKASDGALFPLEVTVMLNKRLPDSRTSYVMTFLWSLNAGLAPETTQATLITSPFTFSYIREDD
notes: as for B1
Take B2: the binding result in the test with soluble CD46 is “no binding”.

B3: wt Ad3 fiber knob without dimerization domain (ligand)
chain: NKLCSKLGNGLTFDSSNSIALKNNTLWTGPKPEANCIIEYGKQNPDSKLTLILVKNGGIVNGYVTLMGASDYVNTLFKNKNVSINVELYFDATGHILPDSSSLKTDLELKYKQTADFSARGFMPSTTAYPFVLPNAGTHNENYIFGQCYYKASDGALFPLEVTVMLNKRLPDSRTSYVMTFLWSLNAGLAPETTQATLITSPFTFSYIREDD
notes: range 108-319; also called wt Ad3knob/noDD; wt Ad3 knob (noDD); not shown: N-terminal 6-His tag of pQE30 and the Gly/Ser linker encoded by primer P1
On to B3, for which, in test [1], the Kd (in general, the concentration at which binding is half-saturated) was 10.1 µM; the koff (as a rule, a measure of how fast the partners let go of each other) was 0.00572 s⁻¹; the kon – broadly, the second-order rate constant of association – stood at 527 M⁻¹ s⁻¹. Moreover, in test [2], the Kd turned out to be 10 µM.

B4: Ad3-S6/Kn (ligand)
chain: GVLSLKCVNPLTTASGSLQLKVGSGLTVDTTDGSLEENIKVNTPLTKSNHSINLPIGNGLQIEQNKLCSKLGNGLTFDSSNSIALKNNTLWTGPKPEANCIIEYGKQNPDSKLTLILVKNGGIVNGYVTLMGASDYVNTLFKNKNVSINVELYFDATGHILPDSSSLKTDLELKYKQTADFSARGFMPSTTAYPFVLPNAGTHNENYIFGQCYYKASDGALFPLEVTVMLNKRLPDSRTSYVMTFLWSLNAGLAPETTQATLITSPFTFSYIREDD
notes: as for B1
Take B4: the binding result with soluble CD46 is reported as “no binding”.

B5: N186D (protein)
chain: MKVSALKEKVSALKEKVSALKEKVSALKEKVSALKEGSGGGSGGGSGGGSNSIALKNNTLWTGPKPEANCIIEYGKQNPDSKLTLILVKNGGIVNGYVTLMGASDYVNTLFKDKNVSINVELYFDATGHILPDSSSLKTDLELKYKQTADFSARGFMPSTTAYPFVLPNAGTHNENYIFGQCYYKASDGALFPLEVTVMLNKRLPDSRTSYVMTFLWSLNAGLAPETTQATLITSPFTFSYIREDD
B5: the “Effect on TEER” value in test [3] is on record as “intermediate effects”. Also, the “Enhancement of irinotecan therapy” value with A549 xenograft tumors is on record as “not significant”.

B6: E299V (protein)
chain: B5 chain with D113N, E226V
With B6, the “Effect on TEER” value in test [3] was “intermediate effects”. Further, the “Enhancement of irinotecan therapy” value in the test with A549 xenograft tumors is given as “not significant”.

B7: JO-2: affinity enhanced version of JO-1; printed Y293D, Kd fits V239D; b41 links JO-2 to K217E/F224S (protein)
chain: B5 chain with D113N, V166D
In the case of B7, the “TEER compared to JO-1” value in test [3] (dimeric affinity-enhanced mutants, TEER at 4 hours, N=3) is “significantly higher”. In addition, the “Enhancement of irinotecan therapy” value in the test on A549 xenograft tumors is “increased irinotecan therapy significantly more than JO-1; also recorded: significant from day 20 on”.

B8: Ad3-S2/Kn (ligand)
chain: KLCSKLGNGLTFDSSNSIALKNNTLWTGPKPEANCIIEYGKQNPDSKLTLILVKNGGIVNGYVTLMGASDYVNTLFKNKNVSINVELYFDATGHILPDSSSLKTDLELKYKQTADFSARGFMPSTTAYPFVLPNAGTHNENYIFGQCYYKASDGALFPLEVTVMLNKRLPDSRTSYVMTFLWSLNAGLAPETTQATLITSPFTFSYIREDD
notes: as for B1
For B8, the binding result with soluble CD46 is reported as “no binding”.

B9: Ad3-S4/Kn (ligand)
chain: GSLEENIKVNTPLTKSNHSINLPIGNGLQIEQNKLCSKLGNGLTFDSSNSIALKNNTLWTGPKPEANCIIEYGKQNPDSKLTLILVKNGGIVNGYVTLMGASDYVNTLFKNKNVSINVELYFDATGHILPDSSSLKTDLELKYKQTADFSARGFMPSTTAYPFVLPNAGTHNENYIFGQCYYKASDGALFPLEVTVMLNKRLPDSRTSYVMTFLWSLNAGLAPETTQATLITSPFTFSYIREDD
notes: as for B1
Take B9: in the test with soluble CD46, the binding result is reported as “no binding”.
